The supplement of paper PMC9170038

Tested on: MS2 coat protein
Experiment: apparent KD of MS2 coat protein; higher = weaker reporter binding
Settings: Eterna round: R107
Method in brief: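 Normalised binding curves from single clusters were fitted, and the median fit for each design is given as apparent KD. The clusters held designed RNA switches transcribed on-chip from Illumina sequencing clusters. These were titrated with SNAP-549-labelled MS2 coat protein (twofold steps from 0.7 or 1.5 nM to 3 µM, 0.8–1.5 h to 10–20 min per step) in 100 mM Tris-HCl pH 7.5, 80 mM KCl, 4 mM MgCl2, without or with constant ligand.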

[1] = input ligand: theophylline 20 uM
[2] = input ligand: theophylline 2 mM
[3] = input ligand: tryptophan 2.4 mM

Row | Sequence | apparent KD of MS2 coat protein (input ligand: arginine 13.2 mM) | apparent KD of MS2 coat protein (input ligand: none) | apparent KD of MS2 coat protein [1] | apparent KD of MS2 coat protein [2] | apparent KD of MS2 coat protein [3]
1 | AAGGUAUCACAGAGGUGAUUCAACUGUGAUACCAGCUAGGAAACUAGCCCUUGGCAGCACAUGAGGAUCACCCAUGUAAGAAUAA [(T)'-(M)'-(T1)-(T2)-(M1)-(M2)_Design3_2/19/17] | 36.3 nM | 36.5 nM | 33.6 nM | 128 nM | 37.1 nM
2 | AUUACAUGGAUUACAACUAAAUCAACUGAAGGAGCGUGAAGGAUCACAGGUAGGUCGCAGUACAUGAGGAUCACCCAUGUUAUAA [JR_Nu_SSArginiA_Sub021] | 34.4 nM | 34 nM | 48.5 nM | 45.9 nM | 39.6 nM
3 | CCUCAAUCGUCGGCCGCCACUGGAUCAUGCGGAUACAUGAGGAUCACCCAUGUGGGUGUGGUACGCAGGACCGGGACAAGACCCG [#15 Same State - Tryptophan B] | 164 nM |  | 579 nM | 1030 nM | 
4 | UAACAUGAGGAUCACCCAUGUAUACUUAGUCGAGGACCGGUACGGCCGCCACUCGUACUUCAAGAUUUGGCGGAAAAUGUAUGUA [JR_ExcTryptoA_Sub021] | 14.2 nM |  | 15.6 nM | 12.5 nM | 
5 | ACACAUGAGGAUCACCCAUGUUCAAUAGAUACCAGUGAUACGGUGCACCCUUGGCAGCUGUUGCUGAGUGAUGGUUCCCUCGGAA [#22 SameState-TheophyllineA] | 32.9 nM |  | 75.6 nM |  | 52.5 nM
6 | GGACUAACCAGAAGGAGCGGCACGCAGAAACUGCAAAUUCCUCCACACGAGGAUCACCCGUGUCAGGUAGGUCGCUGGUUAGUCG | 33.6 nM | 21.5 nM | 30.6 nM | 27.6 nM | 23.1 nM
7 | CCGGCAUGUCGAAGGAGCGUCACAUGAGGAUCACCCAUGUACAUGAGGAUCACCCAUGUGUGACAGGUAGGUCGCGGCGGCCAGG [Exclusion Arginine B GF7] | 108 nM | 140 nM | 178 nM | 197 nM | 158 nM
8 | CCGCACAUGAGGAUCACCCAUGUCCGGGUUCGAGGACCGGUACGGCCGCCACUCGGACAUGUGCGCCCUUCAUGCACUGUAUAAA [Macetius] | 38.9 nM |  | 158 nM | 239 nM | 
9 | AAUAUUAACUGAAGGAGCGUGUUAUGUACAUGAGGAUCACCCAUGUAUAGGGUAAUACUAACACAGGUAGGUCGCAGAAUAAUUA [JR_SSArginiB_Sub010] | 20.2 nM | 20.6 nM | 37.9 nM | 22 nM | 18.5 nM
10 | ACCUGUACGAAAAGUGCAGGACACGGAUAACGAGGACCGGUACGGCCGCCACUCGGAAUAACCUGAGGAUCACCCUGGUACCGUG [TrypAS 8 #AlternativeMS2 #Zipper #StaticStem] | 25.8 nM | 18.7 nM | 24 nM | 23.2 nM | 19 nM
11 | CUAUAAGUAACUGAUACCAGUGUACUGACAUGAGGAUCACCCAUGUUGGGUUUUGUUGUACACCCUUGGCAGCAGAAUCUUAUAG [AstrosExyTheB#14] | 38.9 nM | 63.8 nM | 70.3 nM | 111 nM | 72.5 nM
12 | CGUACAUGAGGAUCACCCAUGUUACAUGAUACCAGACAUGAAAAUGUCCCUUGGCAGCAUGGCGCUGAUAGGGCGGGAAACCCGA [Zabovresky] | 16.6 nM | 19.2 nM | 23.2 nM | 28.7 nM | 19.7 nM
13 | GAAUUUAUAUGAAGGAGCGUCGAAAAUGGGUAAACAUGAGGAUCACCCAUGUAAAGGGAACGACAGGUAGGUCGCAUAUGGAUUC [AstromonsSSArgB#26] | 114 nM | 175 nM | 196 nM | 219 nM | 197 nM
14 | GAUUGGAUUUGAAGGAGCGUCGAAAAUGGGUAAACAUGAGGAUCACCCAUGUAAAGGGAACGACAGGUAGGUCGCAAAUUUAAUC [AstromonsSSArgB#31] | 84.7 nM | 111 nM | 148 nM | 213 nM | 162 nM
15 | AUUGUCAAGUCGGCCGCCACUUCUGCCAUGGCCACCAGUCGACAUGAGGAUCACCCAUGUCUCUUAAGGACCGGGACUUUCAAUU [theeternabot_sameState_MS2_Trp_B_6] | 13.1 nM |  | 16 nM | 13.9 nM | 
16 | GCUUGCUUGUAAGGUUCUGUCCGGCGUCGUCGAGGACCGGUACGGCCGCCACUCGCGCGUUUACAUGAGGAUCACCCAUGUCAUG [theeternabot_exclusion_MS2_Trp_A_49] | 34.3 nM | 40.6 nM | 38.7 nM | 35 nM | 47.5 nM
17 | AGCCACUCGAACAUGGGUGACGAGUGGCAACGAGGACCGGUACGGCCGCCACUCGAAUAAACAUGAGGAUCACCCAUGUACAAAU [T''-M'-T'-T-MS2 - Design 9] | 33.1 nM |  | 146 nM | 355 nM | 
18 | ACAUUAGCCACGGCCGCCACUGCUUUAUGAUUAUAAGGAUUAAUGAACAUGAGGAUCACCCAUGUCAGGACCGGGUGCCUACCAU [SSTryp B #4] | 31.4 nM |  | 42.3 nM | 39 nM | 
19 | AAACAUGAGGAUCACCCAUGUUCUCCUGUCCGAGGACCGGUACGGCCGCCACUCGGUUCUCGGGAGGAUGGUCAAAGACUAUCCA [Omei Trp A SS B v8] | 12 nM |  | 16.9 nM | 13.5 nM | 

Row | Sequence | apparent KD of MS2 coat protein (input ligand: arginine 13.2 mM) | apparent KD of MS2 coat protein (input ligand: none) | apparent KD of MS2 coat protein [1] | apparent KD of MS2 coat protein [2] | apparent KD of MS2 coat protein [3]
20 | UAUCCACAUGAGGAUCACCCAUGUUAGGAAGGAGCGGUGAAUGAACCAGGUAGGUCGCCUAGCUGAGGACCAUCGAUGGAUUCGU [Exclusion - Arginine A (Freestyle 15)] | 17 nM | 20.3 nM | 25.5 nM | 27.5 nM | 20.1 nM
21 | ACCGCAUCCGUAUAGGAUGCGGCCCAUGAAGGAGCGUGGGAAACCACAGGUAGGUCGCAUGGAAAACAUGAGGAUCACCCAUGUG [Alien] | 114 nM | 524 nM | 442 nM | 920 nM | 489 nM
22 | ACCUGUACGAAAAGUGCAGGACACGGAAUACGAGGACCGGUACGGCCGCCACUCGGAAUAACCUGAGGAUCACCCUGGUACCGUG [TrypAS 10 #AlternativeMS2 #Zipper #StaticStem] | 25.8 nM | 18.8 nM | 27.5 nM | 26.7 nM | 19.2 nM
23 | GGGAGGGAGGCGGCCGCCACUGAUUUUCAUAUAUAUAUAACAUGAGGAUCACCCAUGUAGAUAUGCAGGACCGGGCCUUUUUUUU [aaaI] | 21.3 nM |  | 30.1 nM | 19.1 nM | 
24 | CUAUAUAUAAGAAGGAGCGACAUGAGGAUCACCCAUGUCUACCACGUCGAAAGACGCUCAUGUCAGGUAGGUCGCUUAUAUAUAG [Astros-Eli-mod1] | 108 nM | 122 nM | 155 nM | 139 nM | 93.9 nM
25 | UUUACAUGAGGAUCACCCAUGUUCCAUGAUACCAGACAUGAAAAUGUCCCUUGGCAGCAUGAAUGAUUCAUAGGAUAAUUAUGGG [Medlanky] | 79.7 nM |  | 116 nM |  | 72.6 nM
26 | CAUGAUAAGUUGGAUACCAGCAUAUGGAACAACAUGAGGAUCACCCAUGUCAAAUGACAUUGCCCUUGGCAGCCACCUACUGUCA [theeternabot_sameState_MS2_Theo_B_5] | 21.2 nM |  | 19.1 nM |  | 17.9 nM
27 | UGAUGGUUCGGAAGGAGCGUGUAAGAACAAGAACAUGAGGAUCACCCAUGUAUUAAUUUAACACAGGUAGGUCGCCGGGUUAUUG [11.J] | 20.9 nM | 16.3 nM | 23.1 nM | 22.2 nM | 14.4 nM
28 | UGUAUGUGAUCUGAUACCAGUCCAACUGGUAAAGCGUGAGGAUCACCCAUGCAAAAUUGGGACCCUUGGCAGCAGAUCGCAUACU | 48.6 nM | 337 nM | 290 nM | 208 nM | 185 nM
29 | AAGAAAACAUGAGCAAAGCUCAUGUGCGAAGGAGCGGCGGAAACGCCAGGUAGGUCGCGCACAUGAGCAUCAGCCAUGUGUAUCA [Omei Arginine B SS A v3] | 43.5 nM | 36.7 nM | 76.9 nM | 101 nM | 19.4 nM
30 | GAUAUGGAAACAUGUCAGAUCCUUACCGGUCGAGGACCGGUACGGCCGCCACUCGAAAACGAUGUACAUGAGGAUCACCCAUGUA [Ex Tryptophan A 19] | 13.7 nM | 14 nM | 16.2 nM | 14.7 nM | 21.6 nM
31 | AACUGAAGCACCUUAUGCGGCGGCAAAACCCGAGGACCGGUACGGCCGCCACUCGAGUCGCAACAUGAGGAUCACCCAUGUGUAU [theeternabot_exclusion_MS2_Trp_A_30] | 32.5 nM |  | 55.8 nM | 78.8 nM | 
32 | AUAAAUAAUAAAUAUAAUAAAGUGGGUGAACGAGGACCGGUACGGCCGCCACUCGGACAUGAGGAUCACCCAUGUCCAUGUGAAA [AstrosExtTry#3] | 9.94 nM | 17.3 nM | 19.1 nM | 19.3 nM | 40.1 nM
33 | AUGGAGACCUCGGCCGCCACUCUCCAUGAGGAUCUCCCAUGUAACAUGAGGAUCACCCAUGUGCUGAGGACCGGGAGGUCCUGAA [Same State Tryptophan B GF 18] | 9.2 nM |  | 15.8 nM | 12.5 nM | 
34 | GAAACGUAGGUGGAGCGGUGAAAUGGCGAUACCAGCGUGGAAACACGCCCUUGGCAGCGUUAGAACAUGAGGAUCACCCAUGUUU [#21 Exclusion-TheophyllineA] | 19.3 nM |  | 62.4 nM |  | 26.4 nM
35 | CUACAUUUGUAGAAACCGGUCAACAAUAAUCGAGGACCGGUACGGCCGCCACUCGAUGUGAAAUACACAUGAGGAUCACCCAUGU [Tryptophan A 13] | 15.8 nM |  | 19.1 nM | 19.9 nM | 
36 | AAGGGUGAGUCUCUAAUCCGUUUGACGGAUACCAGCGAGAGAUAUCGCCCUUGGCAGCCGACGACAUGAGGAUCACCCAUGUAAA [Exclusion - Theophylline A] | 17 nM |  | 22 nM |  | 14 nM
37 | CUAAGAGUAGGAAGGAGCGACAUGAGGAUCACCCAUGUGGCUCUCAUGGCCCGGGUCUUAUGUCAGGUAGGUCGCCUACUGUUUA [Solave] | 13.6 nM | 14.4 nM | 21.9 nM | 17.1 nM | 14.1 nM
38 | AGACAUGAGGAUCACCCAUGUAGCAUGGAUACCAGAUGUAGAUUAGUCCCUUGGCAGCUGUGGUAAAGUGAUGCAUUGCUCCUAG [Exclusion - Theophylline A (Freestyle 3)] | 35.2 nM |  | 55.3 nM |  | 38.8 nM
